# Experimental data published in patent publication US20250297232A1, “BACTERIAL MYELOPEROXIDASE-CATALASE AND APPLICATIONS THEREOF” (priority 2022, published 2025).
# Residue numbers refer to the chain shown, from its start. Names may count otherwise. “Also recorded” adds a separate entry of the source.
# B1: H407A: RbMPO with active site mutation H407A, generated by site-directed mutagenesis (protein)
# chain: MLFWSKRTRKHPGRKRRRLRSEQLESRQLLAADFGGYRHNIYDAEDVNDDGRVSAIDALLVINAMTSETSRDENVFTDVNGDGRRSALDALRVINRIERGDVFPIDTSGDEDLNTLLPEMPSEVRSIDGSGNNPNDHLWGSVGQRLIRMAPAAYGDGISTLAGANRPSAREVSNVLSAMNTSQVLNDRGLSAFVYVWGQFIDHDLGLTESDEHGEAIDISVPEGDLWFDPMGSGEAVIPMTRTPIADGTGTSVGNPAQQFNQITAFIDGSMVYGSDAATAERLRTFAGGRLAISDNGLLPMDESGMVIAGDVRASENVGLTAIQTLFVREHNRLADEIFAADPEATDEEIYQRARLVVASLIQSITYNEFLPALLGQRAMDSYRGYDASVNPGIANEFSTAAFRLGASTLRDEVGFMSNDGRESKDEMELKDAFFHASMLEETGIDSLLKFDASVQAQEIDLAVVDSLRNFLFGPPGAGGLDLVAMNIQRGRDHGLSDYNTTRQAYGLDRVETFDQITGDVELQQKLASLYGTVDNIDLWVGLMAEDHQHDASVGELTGLIIADQFQRTRDGDRFFYKNVLTDSEVESIERSTLADLIERNTSVDGLQENVFFMQVELRGRVILASSIPPNTMPSEVREEEIRGVSGMAIELIDASGKLVDSTVSDQHGNYRFRALSETGDYQVRLSESGEAMDVLVAHGAERIRGLDFIVLA
# B2: H203A: RbMPO with active site mutation H203A, generated by site-directed mutagenesis (protein)
# chain: B1 chain with H203A, A407H
# B3: Q199A: RbMPO with active site mutation Q199A, generated by site-directed mutagenesis (protein)
# chain: B1 chain with Q199A, A407H
# B4: E316A: RbMPO with active site mutation E316A, generated by site-directed mutagenesis (protein)
# chain: B1 chain with E316A, A407H
# B5: N317M: RbMPO with active site mutation N317M, generated by site-directed mutagenesis (protein)
# chain: B1 chain with N317M, A407H
# B6: D202A, E316A: double mutant of RbMPO with active site mutations D202A and E316A (protein)
# chain: B1 chain with D202A, E316A, A407H
# B7: D202A: RbMPO with active site mutation D202A, generated by site-directed mutagenesis (protein)
# chain: B1 chain with D202A, A407H
# B8: GOxaspniger: glucose oxidase isolated from Aspergillus niger (e.g. CAS number: 9001-37-0) (protein, UniProt P13006 17-605, looked up)
# Glucose oxidase: LPHYIRSNGIEASLLTDPKDVSGRTVDYIIAGGGLTGLTTAARLTENPNISVLVIESGSYESDRGPIIEDLNAYGDIFGSSVDHAYETVELATNNQTALIRSGNGLGGSTLVNGGTWTRPHKAQVDSWETVFGNEGWNWDNVAAYSLQAERARAPNAKQIAAGHYFNASCHGVNGTVHAGPRDTGDDYSPIVKALMSAVEDRGVPTKKDFGCGDPHGVSMFPNTLHEDQVRSDAAREWLLPNYQRPNLQVLTGQYVGKVLLSQNGTTPRAVGVEFGTHKGNTHNVYAKHEVLLAAGSAVSPTILEYSGIGMKSILEPLGIDTVVDLPVGLNLQDQTTATVRSRITSAGAGQGQAAWFATFNETFGDYSEKAHELLNTKLEQWAEEAVARGGFHNTTALLIQYENYRDWIVNHNVAYSELFLDTAGVASFDVWDLLPFTRGYVHILDKDPYLHHFAYDPQYFLNELDLLGQAAATQLARNISNSGAMQTYFAGETIPGDNLAYDADLSAWTEYIPYHFRPNYHGVGTCSMMPKEMGGVVDNAARVYGVQGLRVIDGSIPPTQMSSHVMTVFYAMALKISDAILEDYASMQ
# How the values were obtained:
# [1] = Steady-state kinetics by stopped-flow, NaSCN (hypothiocyanate formation, 240 nm); format: biochemical; conditions: for activity in presence of SCN^− (NaSCN range), in words / k2: 300 nM enzyme, 79 μM H2O2; for substrate specificity: from steady-state NaSCN, NaBr and NaCl ranges; for k2: NaSCN range, linear increase of kss
# Procedure: (§1) pH- and temperature-dependent studies were carried out for each substrate.
# (§2) These temperatures were reached by using a stopped-flow coupled to a cryostat.
# (§3) For temperature and pH measurements, RbMPO was set at the same concentration as in the determination of steady state kinetics parameters.
# [2] = Heme reconstitution of apo wt and mutated RbMPOs (tryptophan fluorescence quenching); format: binding; conditions: 1 μM enzyme; for k2: heme reconstitution of apo enzyme, 50 mM sodium phosphate pH7.5, 25° C.
# Procedure: Sample dilutions were performed in a 50 mM pH7.5 sodium phosphate buffer.
# [3] = Chlorination activity with APF probe, NaCl range; format: biochemical; conditions: linear increase of kss, 1 μM RbMPOs, 79 μM H2O2, 10 μM APF
# Description: The chlorination activity of myeloperoxidases can be determined using the aminophenyl fluorescein (APF) probe. One can indeed detect the oxidation of APF (non-fluorescent) by HOCl into fluorescein, a fluorescent molecule that is detectable at λex=485 nm and λem=525 nm. According to such test, the fluorescence measured is proportional to the quantity of fluorescein, which itself is proportional to the quantity of HOCl produced by the myeloperoxidase.
# Measurements of chlorination activity were herein performed in Corning 384-well clear-bottom (flat-bottom) plates with a reaction volume of 20 μL, in triplicate at 37° C., and in a 50 mM NaPi buffer at pH7.5. […] A 10 to 30 minutes kinetic was performed for each range value and the fluorescence intensity was compared to that of the standard fluorescein range. Thus, the measured fluorescence is proportional to the amount of fluorescein, which in turn is proportional to the amount of HOCl produced by the RbMPOs.
# The slopes were measured at the onset of the reaction in order to be in initial velocity. From these values, it was possible to calculate the kss with the following equation: […]
# where slopes in FI.pmoles^−1 corresponds to the slope of the fluorescein standard range: 2.95 10^6+1.13 10^5.
# [4] = Steady-state kinetics by stopped-flow, NaBr (Tau-NHBr formation, 289 nm); format: biochemical; conditions: 300 nM enzyme, 79 μM H2O2; for kss/[Br^−]: NaBr range, linear (k2)
# Procedure: as §1, §2, §3
# [5] = test system: E. coli ATCC 25922; test: Microbicidal activity: counting colonies on Petri dishes; format: cell-based; conditions: 1 h contact with 1.10^6 CFU/mL, 25 mM SCN^−, pH7.4; enzyme alone: wt RbMPO 300 nM or GOxaspniger 25 nM
# Procedure: 10 mL of TSB medium (pH7.4) was inoculated with a freshly obtained colony of E. coli ATCC 25922, and the culture was incubated at 37° C. and 190 rpm overnight. In the morning, 25 mL of TSB medium were inoculated with the previous day's pre-culture to obtain an OD620 nm of 0.07 at TO. When the bacterial culture reached the exponential phase, the bacterial solution was diluted 10-fold in TSB in order to reach 1.10^6 CFU/mL. This dilution was then contacted with the enzyme solution for 1 hour (in a final volume of 1 mL). Further dilutions were then made (10^−1, 10^−4, 10−5, 10^−6). 100 μL of these solutions were spread on a Petri dish containing TSB agar medium and placed at 37° C. overnight. The next day, the surviving colonies were counted and the number of CFU/mL was calculated using the formula below: […]
molecule,measurement,setting,value
B1,"activity in presence of SCN^− (NaSCN range), in words",[1],not active; also recorded: scatter plot
same,substrate specificity,[1],greater specificity for Br^− than for SCN^−
same,k2,[2],1320 ± 18.9 M⁻¹ s⁻¹
B2,k2,[3],no catalytic constant could be determined; also recorded: scatter plot
same,substrate specificity,[1],higher specificity for SCN^− than Br^−
same,kss/[Br^−],[4],73.94 ± 15.07 M⁻¹ s⁻¹
same,k2,[2],1840 ± 167 M⁻¹ s⁻¹
B3,"activity in presence of SCN^− (NaSCN range), in words",[1],not active
same,substrate specificity,[1],only active for Br
same,kss/[Br^−],[4],78.19 ± 22.00 M⁻¹ s⁻¹
same,k2,[2],1720 ± 133 M⁻¹ s⁻¹
B4,k2,[3],no catalytic constant could be determined; also recorded: scatter plot
same,k2,[1],1936+374 M^−1 · s^−1
same,substrate specificity,[1],active only for SCN^−
same,"activity with Br^− (NaBr range), in words",[4],lack of RbMPO activity
same,k2,[2],418+34 M−1 · s−1
B5,k2,[1],1074 ± 53 M⁻¹ s⁻¹
same,substrate specificity,[1],higher specificity for SCN^− than Br^−
B6,substrate specificity,[1],active only for SCN^−
same,"activity with Br^− (NaBr range), in words",[4],lack of RbMPO activity
same,Kd,"[2]; heme reconstitution, saturation of active site by heme, pH7.5, 25° C.",10.9 µM
B7,substrate specificity,[1],higher specificity for SCN^− than Br^−
B8,surviving bacteria,[5],"1,015,000±21,213 CFU/mL"
